Here are results for 28 molecules from doi:10.1101/2024.06.26.600905 (bioRxiv, 2024).

Experiment [1] addresses NH3+-NLVGRF-[DAP-FAM]-VSPVPE-COO- fluorescent probe peptide (human). Nature of the experiment: fluorescence polarisation. In general terms: In fluorescence polarisation assays a small probe gives low polarisation when free and higher when bound to something large.
In experiment [2] the target is His6-SPAK CCT (mouse SPAK 459-556) (mouse) (UniProt Q9Z1W9). The experiment is described as follows: fluorescence polarisation.
In experiment [3] the target is T1, His6-OSR1 CCT (human OSR1 433-527) (human, UniProt O95747 433-527). The experiment is described as follows: fluorescence polarisation.
T1 sequence (O95747 433-527): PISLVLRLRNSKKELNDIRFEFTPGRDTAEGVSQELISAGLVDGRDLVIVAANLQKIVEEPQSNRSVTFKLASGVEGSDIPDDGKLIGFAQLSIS
In experiment [4] the target is His6-SPAK CCT (mouse SPAK 459-556) (mouse) (UniProt Q9Z1W9). The experiment is described as follows: fluorescence polarisation. The source holds these as a separate data set.
Experiment [5] concerns the target T1, His6-OSR1 CCT (human OSR1 433-527). The experiment is described as follows: peptide or protein array.

Like-named read-outs stand apart in the source and are kept apart here. Where no end group is shown, it is not given here. [ ]: non-standard residue; d: D form. pY = N[C@@H](Cc1ccc(OP(=O)(O)O)cc1)C(=O)O; TOTD membrane = not defined here; pS = N[C@@H](COP(=O)(O)O)C(=O)O

His6-OSR1 CCT (human OSR1 433-527) (from UniProt O95747 433-527) (domain or fragment), sequence (O95747 433-527): as above

For orientation: Kd means the free concentration of one partner at which half of the binding sites on the other are occupied at equilibrium, for simple one-to-one binding. A higher Kd goes with lower affinity. On to “His6-OSR1 CCT (human OSR1 433-527) (from UniProt O95747 433-527) (domain or fragment)”, for which the Kd in experiment [1] is 1.5 µM.
On to hWNK1 1253-1265 R1257A peptide …, for which the fold decrease in affinity relative to wild type in experiment [2] was 3.1 fold.
With “purified SPAK CCT domain D477Q (domain or fragment)”, the fold decrease in affinity relative to wild type in experiment [1] is 50 fold.
In the case of “His6-SPAK CCT (mouse SPAK 459-556) (from UniProt Q9Z1W9 459-556) (domain or fragment)”, the Kd in experiment [1] came out at 0.67 µM. This lies in the sub-micromolar range.
The term Ki denotes the equilibrium dissociation constant of an inhibitor or competing ligand from its target. The low end stands for a stronger hold on the target, the high end for a looser hold on the target. For the molecule hWNK4 1012-1024 wild type peptide …, in experiment [2], the Ki was found to be 7.2 µM.
For SAGRRFIVSAAPE [hWNK1 1253-1265 peptide, proline and valine to alanines at +4/+5], the binding result in experiment [3] is given as “binds”.
On the same count and under the same terms, the value for LRRRNFKVMIYQD [Cavin1 146-158 motif peptide] was “binds”.
SAGRRFIV[pS]PVPE [hWNK1 1253-1265 peptide phosphorylated on serine at the +3 position]: the “fold decrease in affinity relative to wild type” value in experiment [3] was approximately 2.5 fold; in experiment [4], 2.5 fold.
Consider H-SAGRRFIVSPVPE-OH [hWNK1 1253-1265 wild type peptide NH3+-SAGRRFIVSPVPE-COO-], for which, in experiment [3], the affinity, expressed as Ki, was 5.1 µM.
With SAGKAFIVSPVPE [hWNK1 1253-1265 peptide, arginines replaced with lysine-alanine], in experiment [3], the binding result was “binds”.
Take SAGHHFIVSPVPE [hWNK1 1253-1265 peptide, arginines replaced with histidine-histidine]: the fold decrease in affinity relative to wild type in experiment [2] was 7 fold; in experiment [3], approximately 7 fold.
With SAVARFIVSPVPE [hWNK1 1253-1265 peptide, -3 glycine and -2 arginine to valine-alanine], the binding result in experiment [3] is “binds”.
Consider SAGAHFIVSPVPE [hWNK1 1253-1265 peptide, arginines replaced with alanine-histidine], for which, in experiment [3], the binding result is listed as “binds”.
For the molecule SAGARFIVSPVPE [hWNK1 1253-1265 peptide, first arginine of RRF to alanine], the fold decrease in affinity relative to wild type in experiment [2] was 1.5 fold; in experiment [3], approximately 1.5 fold.
With SAGAKFIVSPVPE [hWNK1 1253-1265 peptide, arginines replaced with alanine-lysine], the binding result in experiment [3] is on record as “binds”.
As to SAAARFIVSPVPE [hWNK1 1253-1265 peptide, -3 glycine and -2 arginine to alanine-alanine], the binding result in experiment [3] was “binds”.
SAGHAFIVSPVPE [hWNK1 1253-1265 peptide, arginines replaced with histidine-alanine]: the fold decrease in affinity relative to wild type in experiment [2] and in experiment [3] was 11 fold throughout.
SAGKKFIVSPVPE [hWNK1 1253-1265 peptide, arginines replaced with lysine-lysine]: the inhibitory constant (Ki) in experiment [2] was 4.2 µM; in experiment [3] it was 16.3 µM.
Take SAGRAFIVSPVPE [hWNK1 1253-1265 R1257A peptide SAGRAFIVSPVPE]: in experiment [3], the “fold decrease in affinity relative to wild type” value was approximately 3.1 fold.
Regarding Ac-QLVGRFQVTSSKE-{TOTD membrane} (reading uncertain) [hWNK4 1012-1024 wild type peptide QLVGRFQVTSSKE on the peptide array membrane], the binding result in experiment [5] is “binds”.
For the molecule LRRRNFKVMI[pY]QD [p-Tyr156 Cavin1 peptide (Cavin1 146-158)], the binding result in experiment [3] is listed as “binds”.
For the molecule H-SAGRRFIVSPVPE-OH [hWNK1 1253-1265 wild type peptide NH3+-…-COO-], in experiment [4], the Ki was 2.5 µM.
Molecule QLVGRFQVTSSKE [hWNK4 1012-1024 wild type peptide QLVGRFQVTSSKE] showed a Ki in experiment [3] of 12.9 µM.
On to QLVGRFAVTSSKE [hWNK4 1012-1024 peptide, glutamine to alanine at the +1 position], for which the binding result in experiment [3] is reported as “binds”.
Same read-out and setting: next, QLVSRFQVTSSKE [hWNK4 1012-1024 peptide, glycine to serine at the -2 position]: “binds”; QLVGRFQITSSKE [hWNK4 1012-1024 peptide, valine to isoleucine at the +2 position]: “binds”; QLVGRFQVASSKE [hWNK4 1012-1024 peptide, threonine to alanine at the +3 position]: “binds”.
Still for that read-out and setting: next, QLVGRFQLTSSKE [hWNK4 1012-1024 peptide, valine to leucine at the +2 position]: “binds”.
